Patent publication US20240287172A1 (SCIRHOM, published 2024)
Positions count from the first letter of the chain named.

T1: hiR2-FL-Q437D-T7 (human, UniProt Q6PJF5 1-856)
T1 sequence: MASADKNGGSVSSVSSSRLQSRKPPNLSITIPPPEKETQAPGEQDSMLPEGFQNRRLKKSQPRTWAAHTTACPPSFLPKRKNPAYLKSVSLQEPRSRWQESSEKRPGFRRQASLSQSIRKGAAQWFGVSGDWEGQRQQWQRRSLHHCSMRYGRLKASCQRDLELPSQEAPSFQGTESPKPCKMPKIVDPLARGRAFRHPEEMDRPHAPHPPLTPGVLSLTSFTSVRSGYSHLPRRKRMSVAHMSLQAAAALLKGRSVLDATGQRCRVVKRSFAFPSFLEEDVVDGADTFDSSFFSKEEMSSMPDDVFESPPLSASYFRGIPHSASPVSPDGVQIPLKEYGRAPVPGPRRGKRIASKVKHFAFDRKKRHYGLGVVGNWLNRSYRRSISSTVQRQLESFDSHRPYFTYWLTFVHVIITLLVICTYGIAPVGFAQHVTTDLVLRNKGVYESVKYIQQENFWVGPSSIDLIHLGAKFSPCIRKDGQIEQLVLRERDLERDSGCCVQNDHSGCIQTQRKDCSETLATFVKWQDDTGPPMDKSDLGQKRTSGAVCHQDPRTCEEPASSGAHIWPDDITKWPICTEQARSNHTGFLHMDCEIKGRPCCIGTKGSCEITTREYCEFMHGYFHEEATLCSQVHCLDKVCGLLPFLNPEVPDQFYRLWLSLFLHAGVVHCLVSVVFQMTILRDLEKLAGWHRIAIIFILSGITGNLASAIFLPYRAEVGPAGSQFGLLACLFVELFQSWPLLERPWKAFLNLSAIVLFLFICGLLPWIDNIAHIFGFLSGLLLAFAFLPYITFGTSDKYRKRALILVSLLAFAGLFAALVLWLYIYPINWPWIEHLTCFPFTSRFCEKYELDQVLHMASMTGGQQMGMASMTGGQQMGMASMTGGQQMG

T2: hiR2-FL-I477M-T7 (human, UniProt Q6PJF5 1-856)
T2 sequence: T1 sequence with D437Q, I477M

B1: antibody 48 (antibody, V domains shown)
VH: QVQLQQSGTELVRPGTSVKVSCKASGYAFTNYLIEWVKQRPGQGLEWIGVINPGSGFTKYNEKFKGKATLTADKSSSTVYMHLSSLTSEDSAVYFCARGLYRAMDYWGQGTSVTVSS
VL: DIQMTQSPASQSASLGESVTITCLASQTIATWLAWYQQKPGKSPQLLIYGATTLADGVPSRFSGGGSGTKFSFKISSLQAEDFVSYYCQQLYSTPYTFGGGTKLEIK
notes: mouse IgG, kappa light chain; also called clone #48; purified antibody 48
B2: antibody 50 (antibody, V domains shown)
VH: B1 VH with T9A, T16A, T30S, V79A, H82Q
VL: B1 VL with A30G, G50A, T52A, T53S, S85N, L91I
notes: mouse IgG, kappa light chain; also called clone #50; purified antibody 50

Columns and labels:
hiR2-FL-Q437D-T7 = target: T1, hiR2-FL-Q437D-T7; test: FACS, MEF-DKO cells, 3 µg/ml
Source text: (§1) In brief, immortalized MEF-DKO-hiR2-FL-A431S-T7, MEF-DKO-hiR2-FL-V434E-T7, MEF-DKO-hiR2-FL-T436V-T7, MEF-DKO-hiR2-FL-Q437D-T7, MEF-DKO-hiR2-FL-L438S-T7, MEF-DKO-hiR2-FL-S448N-T7, MEF-DKO-hiR2-FL-I452V-T7, MEF-DKO-hiR2-FL-I464E-T7, MEF-DKO-hiR2-FL-D465A-T7, MEF-DKO-hiR2-FL-I477M-T7, MEF-DKO-hiR2-FL-K479Q-T7, MEF-DKO-hiR2-FL-G481P-T7, MEF-DKO-hiR2-FL-I483V-T7, MEF-DKO-hiR2-FL-E484H-T7, MEF-DKO-hiR2-FL-Q485S-T7, MEF-DKO-hiR2-FL-L486F-T7, MEF-DKO-hiR2-FL-V487I-T7, MEF-DKO-hiR2-FL-R489S-T7, MEF-DKO-hiR2-FL-E490A-T7, MEF-DKO-hiR2-FL-D492E-T7, MEF-DKO-hiR2-FL-L493R-T7, MEF-DKO-hiR2-FL-R495K-T7 and MEF-DKO-hiR2-FL-D496H-T7 cells were harvested with 10 mM EDTA in PBS, washed and resuspended in FACS buffer (PBS, 3% FBS, 0.05% sodium azide), and seeded in Nunc U-bottom 96-well plates (Thermo Fisher Scientific, USA) at approximately 1×10⁵ cells per well. To pellet cells and remove supernatants, the plates were centrifuged at 1,500 rpm and 4° C. for 3 minutes. For primary staining, cells were resuspended in 100 μl per well of either FACS buffer alone (controls) or the purified antibodies 3, 5, 16, 22, 34, 42, 43, 44, 48, and 50 of the invention at 3 μg/ml in FACS buffer and incubated on ice for 1 hour. Afterwards, plates were centrifuged at 1,500 rpm and 4° C. for 3 minutes and washed twice with 200 μl per well of FACS buffer. For secondary staining, cells were spun down and resuspended in 100 μl per well of PE-conjugated goat anti-mouse IgG F(ab′)2 detection fragment (Dianova, Germany) diluted 1:100 in FACS buffer. Protected from light, the cell suspensions were incubated on ice for 1 hour. Plates were then centrifuged at 1,500 rpm and 4° C. for 3 minutes and washed three times with 200 μl per well of FACS buffer. Finally, cells were resuspended in 150 μl per well of FACS buffer and analyzed using a BD Accuri™ C6 Plus flow cytometer (Becton Dickinson, Germany).

hiR2-FL-I477M-T7 = target: T2, hiR2-FL-I477M-T7; test: FACS, MEF-DKO cells, 3 µg/ml
Source text: as §1

Row | Binder | loss of binding vs wild type (hiR2-FL-Q437D-T7) | loss of binding vs wild type (hiR2-FL-I477M-T7)
1 | B1 | ≥ 30% | ≥ 30%
2 | B2 | ≥ 30% | ≥ 30%
